The conditions of this series: whole UniProt chain shown.
Setting [1] is: Escherichia coli (strain K12), pH 7.5, 20 °C, GdnHCl, CD, HEPES 5 mM, NiCl2 5 mM, reversible: Yes.
The mark [2] stands for this setting: Fusarium vanettenii, pH 9, Thermal, DSC, Tris 10 mM, NaCl 40 mM, reversible: no.
The mark [3] stands for this setting: Gallus gallus, pH 7.4, 25 °C, GdnHCl, CD, Tris 50 mM, KCl 100 mM, reversible: yes.
The mark [4] stands for this setting: Escherichia coli (strain K12), pH 7.5, 10 °C, Urea, CD, LcrH.
Setting [5] is: Escherichia coli (strain K12), pH 7.5, 20 °C, Urea, CD, LcrH.
[6] abbreviates: Escherichia coli, pH 5, 23 °C, Urea, DSC, Acetic acid/MES/Tris 50 mM/50 mM/100 mM/, reversible: yes.
The mark [7] stands for this setting: Escherichia coli, pH 8, Thermal, DSC, Tris/MES/Acetic acid 100 mM/50 mM/50 mM/, reversible: yes.

Several values for one entry are separate records, joined by “and”; a condition that tells them apart may be missing. Equal values may be shown once.

B1: Glutamine-binding periplasmic protein wild type, P0AEQ3 (protein)
chain: MKSVLKVSLAALTLAFAVSSHAADKKLVVATDTAFVPFEFKQGDKYVGFDVDLWAAIAKELKLDYELKPMDFSGIIPALQTKNVDLALAGITITDERKKAIDFSDGYYKSGLLVMVKANNNDVKSVKDLDGKVVAVKSGTGSVDYAKANIKTKDLRQFPNIDNAYMELGTNRADAVLHDTPNILYFIKTAGNGQFKAVGDSLEAQQYGIAFPKGSDELRDKVNGALKTLRENGTYNEIYKKWFGTEPK
Consider B1, for which, under “Escherichia coli (strain K12), pH 8.3, Thermal, Absorbance, Tris-HCl 10 mM”, the Tm is 63.1 °C and 66.2 °C.

B2: Head completion protein wild type, P68660 (protein)
chain: MTRQEELAAARAALHDLMTGKRVATVQKDGRRVEFTATSVSDLKKYIAELEVQTGMTQRRRGPAGFYV
In the case of B2, for the setting “Escherichia phage lambda, pH 8, 25 °C, Urea, CD, Tris 10 mM, reversible: yes”, the unfolding free energy was 2.91 kcal/mol and 3.27 kcal/mol. For the same protein, the Tm (Escherichia phage lambda, pH 8, Thermal, CD, Tris 10 mM, reversible: yes) was 71.6 °C and 71.8 °C.

B3: ATP-dependent 6-phosphofructokinase isozyme 2 wild type, P06999 (protein)
chain: MVRIYTLTLAPSLDSATITPQIYPEGKLRCTAPVFEPGGGGINVARAIAHLGGSATAIFPAGGATGEHLVSLLADENVPVATVEAKDWTRQNLHVHVEASGEQYRFVMPGAALNEDEFRQLEEQVLEIESGAILVISGSLPPGVKLEKLTQLISAAQKQGIRCIVDSSGEALSAALAIGNIELVKPNQKELSALVNRELTQPDDVRKAAQEIVNSGKAKRVVVSLGPQGALGVDSENCIQVVPPPVKSQSTVGAGDSMVGAMTLKLAENASLEEMVRFGVAAGSAATLNQGTRLCSHDDTQKIYAYLSR
For B3, the unfolding free energy worked out at 12.1 kcal/mol (Escherichia coli (strain K12), pH 7.8, 20 °C, GdnHCl, Activity, Tris 50 mM, Magnesiun chloride 5 mM, reversible: Yes); 12.2 kcal/mol (Escherichia coli (strain K12), pH 7.8, 20 °C, GdnHCl, CD, Tris 50 mM, Magnesiun chloride 5 mM, reversible: Yes); 11.9 kcal/mol (Escherichia coli (strain K12), pH 7.8, 20 °C, GdnHCl, Fluorescence, Tris 50 mM, Magnesiun chloride 5 mM, reversible: Yes).

B4: Peptide deformylase wild type, P0A6K3 (protein)
chain: MSVLQVLHIPDERLRKVAKPVEEVNAEIQRIVDDMFETMYAEEGIGLAATQVDIHQRIIVIDVSENRDERLVLINPELLEKSGETGIEEGCLSIPEQRALVPRAEKVKIRALDRDGKPFELEADGLLAICIQHEMDHLVGKLFMDYLSPLKQQRIRQKVEKLDRLKARA
On to B4, for which, under setting [1], the denaturant m value turned out to be 1.8 kcal/mol/M and the unfolding free energy stood at 4.4 kcal/mol.

B5: Cutinase 1 wild type, P00590 (protein)
chain: MKFFALTTLLAATASALPTSNPAQELEARQLGRTTRDDLINGNSASCRDVIFIYARGSTETGNLGTLGPSIASNLESAFGKDGVWIQGVGGAYRATLGDNALPRGTSSAAIREMLGLFQQANTKCPDATLIAGGYSQGAALAAASIEDLDSAIRDKIAGTVLFGYTKNLQNRGRIPNYPADRTKVFCNTGDLVCTGSLIVAAPHLAYGPDARGPAPEFLIEKVRAVRGSA
Take B5: the Tm (Fusarium vanettenii, pH 4.5, Thermal, Fluorescence, Sodium acetate 25 mM, reversible: Yes) worked out at 75 °C. Besides, under setting [2], the “unfolding enthalpy (calorimetric)” value was 104 kcal/mol and 92.3 kcal/mol; the “unfolding enthalpy (van 't Hoff)” value is 212 kcal/mol and 122 kcal/mol.

B6: Apolipoprotein A-I wild type, P08250 (protein)
chain: MRGVLVTLAVLFLTGTQARSFWQHDEPQTPLDRIRDMVDVYLETVKASGKDAIAQFESSAVGKQLDLKLADNLDTLSAAAAKLREDMAPYYKEVREMWLKDTEALRAELTKDLEEVKEKIRPFLDQFSAKWTEELEQYRQRLTPVAQELKELTKQKVELMQAKLTPVAEEARDRLRGHVEELRKNLAPYSDELRQKLSQKLEEIREKGIPQASEYQAKVMEQLSNLREKMTPLVQEFRERLTPYAENLKNRLISFLDELQKSVA
As to B6, under “Gallus gallus, pH 7.4, 20 °C, GdnHCl, Fluorescence, Tris 50 mM, KCl 100 mM, reversible: yes”, the unfolding free energy was 2.93 kcal/mol. In addition, under setting [3], the denaturant m value is 2.78 kcal/mol/M and the unfolding free energy was 1.86 kcal/mol.

B7: Aspartate aminotransferase wild type, P00509 (protein)
chain: MFENITAAPADPILGLADLFRADERPGKINLGIGVYKDETGKTPVLTSVKKAEQYLLENETTKNYLGIDGIPEFGRCTQELLFGKGSALINDKRARTAQTPGGTGALRVAADFLAKNTSVKRVWVSNPSWPNHKSVFNSAGLEVREYAYYDAENHTLDFDALINSLNEAQAGDVVLFHGCCHNPTGIDPTLEQWQTLAQLSVEKGWLPLFDFAYQGFARGLEEDAEGLRAFAAMHKELIVASSYSKNFGLYNERVGACTLVAADSETVDRAFSQMKAAIRANYSNPPAHGASVVATILSNDALRAIWEQELTDMRQRIQRMRQLFVNTLQEKGANRDFSFIIKQNGMFSFSGLTKEQVLRLREEFGVYAVASGRVNVAGMTPDNMAPLCEAIVAVL
As for B7, the denaturant m value by setting is: under setting [4], 3.4 kcal/mol/M; under setting [5], 4.8 kcal/mol/M. In addition, the unfolding free energy runs as follows: under setting [4], 24.4 kcal/mol; under setting [5], 12 kcal/mol; (Escherichia coli (strain K12), pH 7.5, 25 °C, Urea, enzyme activity, potassium phosphate 20 mM) 10 kcal/mol.

B8: Colicin-A wild type, Q47108 (protein)
chain: VAEKAKDERELLEKTSELIAGMGDKIGEHLGDKYKAIAKDIADNIKNFQGKTIRSFDDAMASLNKITANPAMKINKADRDALVNAWKHVDAQDMANKLGNLSKAFKVADVVMKVEKVREKSIEGYETGNWGPLMLEVESWVLSGIASSVALGIFSATLGAYALSLGVPAIAVGIAGILLAAVVGALIDDKFADALNNEIIRPAH
For B8, the Tm runs as follows: (Escherichia coli, pH 3, Thermal, DSC, Na2HPO4-citrate 30 mM, reversible: no) 39 °C; (Escherichia coli, pH 3.5, Thermal, DSC, Na2HPO4-citrate 30 mM, reversible: no) 49 °C; (Escherichia coli, pH 4, Thermal, DSC, Na2HPO4-citrate 30 mM, reversible: no) 56 °C; (Escherichia coli, pH 7, Thermal, DSC, Na2HPO4-citrate 30 mM, reversible: no) 69 °C; (Escherichia coli, pH 8, Thermal, DSC, Na2HPO4-citrate 30 mM, reversible: no) 67 °C.

B9: Dihydrofolate reductase type 2 wild type, P00383 (protein)
chain: MERSSNEVSNPVAGNFVFPSNATFGMGDRVRKKSGAAWQGQIVGWYCTNLTPEGYAVESEAHPGSVQIYPVAALERIN
On to B9, for which, under setting [6], the denaturant m value worked out at 1.46 kcal/mol/M. Moreover, the “denaturant midpoint (higher = more stable)” value under setting [6] turned out to be 3.63 M. The unfolding free energy runs as follows: under setting [6], 13.3 kcal/mol; (Escherichia coli, pH 5, 30 °C, GdnHCl, CD, Acetic acid/MES/Tris 50 mM/50 mM/100 mM/, reversible: yes) 15.5 kcal/mol; (Escherichia coli, pH 5, 30 °C, GdnHCl, Fluorescence, Acetic acid/MES/Tris 50 mM/50 mM/100 mM/, reversible: yes) 13.5 kcal/mol; (Escherichia coli, pH 8, 30 °C, GdnHCl, CD, Tris/MES/Acetic acid 100 mM/50 mM/50 mM/, reversible: yes) 9.63 kcal/mol. The Tm under setting [7] is 71 °C. Also, under setting [7], the “unfolding enthalpy (calorimetric)” value came to 307 kcal/mol.

B10: Aspartate carbamoyltransferase catalytic subunit wild type, P0A786 (protein)
chain: MANPLYQKHIISINDLSRDDLNLVLATAAKLKANPQPELLKHKVIASCFFEASTRTRLSFETSMHRLGASVVGFSDSANTSLGKKGETLADTISVISTYVDAIVMRHPQEGAARLATEFSGNVPVLNAGDGSNQHPTQTLLDLFTIQETQGRLDNLHVAMVGDLKYGRTVHSLTQALAKFDGNRFYFIAPDALAMPQYILDMLDEKGIAWSLHSSIEEVMAEVDILYMTRVQKERLDPSEYANVKAQFVLRASDLHNAKANMKVLHPLPRVDEIATDVDKTPHAWYFQQAGNGIFARQALLALVLNRDLVL
As to B10, the unfolding free energy (Escherichia coli (strain K12), pH 8.3, 7.5 °C, Urea, Absorbance, HEPES 0.1 M, reversible: yes) is 2 kcal/mol.

B11: Ribose import binding protein RbsB wild type, P02925 (protein)
chain: MNMKKLATLVSAVALSATVSANAMAKDTIALVVSTLNNPFFVSLKDGAQKEADKLGYNLVVLDSQNNPAKELANVQDLTVRGTKILLINPTDSDAVGNAVKMANQANIPVITLDRQATKGEVVSHIASDNVLGGKIAGDYIAKKAGEGAKVIELQGIAGTSAARERGEGFQQAVAAHKFNVLASQPADFDRIKGLNVMQNLLTAHPDVQAVFAQNDEMALGALRALQTAGKSDVMVVGFDGTPDGEKAVNDGKLAATIAQLPDQIGAKGVETADKVLKGEKVQAKYPVDLKLVVKQ
Take B11: the unfolding free energy (Escherichia coli (strain K12), pH 7.7, 25 °C, GdnHCl, Fluorescence, HEPES 10 mM, reversible: yes) is 5.1 kcal/mol.

As usually defined, the Tm is the temperature at which the thermal transition is half complete.
